{"source": "patent US20240026407A1", "about": "“MODIFICATION OF SAPONINS” (GLAXOSMITHKLINE BIOLOGICALS SA, priority 2020, published 2024)", "molecules": {"B1": {"name": "Variant R2: engineered rhamnosidase polypeptide, variant of Kribbella flavida rhamnosidase SEQ ID No. 1017 (protein)", "chain": "MSFPAAPARLRFEHRTDPGPVLGIGTATPRLSWQVPTAPDDYRQAGYEVEIARGDAAPEQYTVDSADQVLVPWPGTPLAARESATVRVRVRGDGDWSQWSDPATVEAGLLSADDWTARFVSPRENAGHEAPAPLIGGVIDLPPDIAQARLYATAHGIYEPTLNGTRVGDEQLAPGWTAYEQRLRYQTYDVTDLVAPGENRLELLVGNGWYRGRMGFHGGHSLYGDRLAVLAQLEVTTATGEVKVLASDGTWTTRETNVLADDLYDGQHVDLRRTLGEPGPVDVLDADLSLLVAPDGPPVRVTDVLPAKAVTTSPAGKTLVDFGQNVVGRLRLRVRGGAAGDEIVLRHAEVLEDGELGVRPLRTAKATDSFVLAGPDEVTLEPTLTFHGFRYAEITGVPDLRAEDVEAVVVGSDLRRTGWFESSHPLLDRFHENVVWGMRGNFLDVPTDCPQRDERLGWTGDIQVFSPTASFLFDTAGFLTNWLADLIAEQHKDGSVPFVVPDVLRQPGPATAAWGDAATIVPWVLYERTGDAGLLARQLPSMRAWVDRMAGLAGDDLLWVGGFQFGDWLDPTAPPDDPFRAKADPDVLATAHLARSAEVVALAAEVVGAGELAREYAELAARVRQAFAAEYTTGSGRVLSDAATNYALALQWALLPTEAQRKRAGERLADLVRTAGFRISTGFVGTPLMADALADSGHPDLAYRLLLETGCPSWLYAVTMDATTVWERWDSMLPDGSINPGQMTSFNHYALGAVADWMHRRVAGLAPGDPGYRRIVVDPLFTAHLTKASARHLTPYGEAAVAWSRSGGRVRLEVTVPVGARARVAVPGESAPVEVGHGTHEWTADDVYGETPPLPADATIRQLIDHEPSWTTLAAAATRTGIVADDAELAGRLERYLDHPATELVDAVSPRGFSPSAEALHAELDSVLGR", "modifications": "Seq ID No. 1017 with mutations A143P, L214M, K219G, Q921H"}}, "key": {"[1]": {"test": "Example 9: screening of rhamnosidase variants for derhamnosylation of saponins in crude bark extract", "format": "biochemical, Quillaja saponaria", "method": "Libraries of genetic variants encoding mutations in the wild type Kribbella flavida rhamnosidase (SEQ ID No. 1017) were prepared using molecular biology techniques, enzymes were prepared linked to a C-terminally located His-tag. Single monoclonal colonies were grown in 400 ul of expression medium and protein expressed. Cell pellets were lysed in 200 ul of the relevant buffer (Table 17).\nLysate was diluted appropriately in the relevant buffer to allow a lysate loading of the indicated % loading (1% loading corresponds to use of 2 ul original lysate in a 200 ul reaction).\nCrude bark extract (CBE) obtained by aqueous extraction of Quillaja saponaria and containing at least 2.80 mg/ml QS-21 (by HPLC-UV) was adjusted to pH 6 by dropwise addition of 2M NaOH with stirring. The relevant concentration of the relevant glucosidase was added. The appropriate relative volume of pH 6 CBE (160 ul (for 80%) or 150 ul (for 75%)) was added to each well of the reaction plate. The reaction plate was sealed and incubated at the relevant temperature and time.\nThe reaction plate was quenched by adding 200 uL of MeCN (2% AcOH, 1 mg/mL hexanophenone) to each well of the plates. The quenched reaction plate was re-sealed and incubated at 20 deg C. with shaking for 10 min. The reaction plate was then centrifuged (10 min, 4 degC).\n200 uL was transferred from each well of the quenched plate to the corresponding wells of a fresh 96 well plate and sealed. The plate was analysed by UV HPLC with the method described in Example 4.\nThree key peaks of interest are apparent using this chromatography: Left Peak (retention time approximately 2.30-2.35 min) comprising mainly QS-17 family components; Middle Peak (retention time approximately 2.37-2.42 min) comprising mainly QS-18 family components and desglucosyl-QS-17 family components; and Right Peak (retention time approximately 2.44-2.50 min) comprising mainly QS-21 family components. Peak identity was supported by MS/MS.\nEnzyme activity is calculated as the % conversion of the Left Peak present in the crude bark extract: […]"}, "[2]": {"test": "Example 10: derhamnosylation of saponins in crude bark extract (50%) using WT and engineered rhamnosidases R1 to R5", "format": "biochemical, Quillaja saponaria", "conditions": "7 h, 50% CBE, 35 degC; for % Right Peak: starting CBE 26; for % Left Peak: starting CBE 30; for % Middle Peak: starting CBE 44", "method": "Lyophilised powders from clarified cell lysate expressing glucosidases (from Example 8 WT glucosidase and engineered glucosidase polypeptides G1 to G5) and rhamnosidases (from Example 9 WT rhamnosidase and engineered rhamnosidase polypeptides R1 to R5) were dissolved in 200 mM sodium acetate aqueous solution at pH 5.8 to prepare the enzyme solutions at 4 fold the final reaction concentration as shown in Tables 19 and 20.\nEach rhamnosidase solution was combined with an equal volume of 200 mM sodium acetate aqueous solution at pH 5.8 and separately with an equal volume of 200 mM sodium acetate aqueous solution at pH 5.8 containing 2 mg/ml glucosidase G5. This is a sufficient loading of glucosidase to effect complete hydrolysis of the relevant glucose moiety within 4 hours.\nCBE was adjusted to pH of 6.0 to 6.2 with 2M sodium hydroxide and an equal volume added to the enzyme solution to prepare the reaction mix (i.e. 50% CBE concentration in reaction mix) and the concentration of glucosidase and/or rhamnosidase is shown in Tables 19 and 20. The reaction mix was heated to 35 degC for the time indicated in Tables 19 and 20, after which the reaction was quenched by addition of an equal volume of MeCN containing 2% acetic acid and shaken at room temperature for 10 mins prior to centrifugation (10 min, 4 degC) to remove particulates. Samples were analysed by UV HPLC using method of Experiment 4-4.\nThe change in composition of the Left, Middle and Right peaks is shown in Tables 19 and 20. The composition changes by the action of the enzymes depending on the presence or absence of the partner enzyme. The extent of reaction is proportional to the enzyme concentration and the reaction time under these conditions. The tables show data for enzyme concentrations and the reaction times providing for equivalent extents of reaction. The improvement resulting from the mutations introduced for each variant is equal to the fold change in enzyme concentration×time (i.e. fold improvement=(enzyme concentration×time) for preceding variant÷(enzyme concentration×time) for later variant). A cumulative fold improvement over the original enzyme variant is calculated by the product of the individual fold improvements."}, "[3]": {"conditions": "rhamnosidase 1.25 mg/ml + glucosidase G5 0.5 mg/ml"}, "[4]": {"conditions": "rhamnosidase 1.25 mg/ml, no glucosidase"}}}
{"molecule": "B1", "values": [{"measurement": "% conversion (Right peak/Left Peak) (−neg control)", "setting": "[1]; R2 round: 20 deg C, 20 h, lysate 1.25% v/v, CBE 80% v/v, 100 mM Potassium phosphate pH 6", "result": 1.09, "unit": "%"}, {"measurement": "Cumulative FIOP from WT", "setting": "[1]; R2 round: 20 deg C, 20 h, lysate 1.25% v/v, CBE 80% v/v, 100 mM Potassium phosphate pH 6, estimate", "result": 2.9}, {"measurement": "Left Peak %", "setting": "[1]; R2 round: 20 deg C, 20 h, lysate 1.25% v/v, CBE 80% v/v, 100 mM Potassium phosphate pH 6, negative control 23.63", "result": 22.76, "unit": "%"}, {"measurement": "Right Peak %", "setting": "[1]; R2 round: 20 deg C, 20 h, lysate 1.25% v/v, CBE 80% v/v, 100 mM Potassium phosphate pH 6, negative control 26.10", "result": 26.27, "unit": "%"}, {"measurement": "Middle Peak %", "setting": "[1]; R2 round: 20 deg C, 20 h, lysate 1.25% v/v, CBE 80% v/v, 100 mM Potassium phosphate pH 6, negative control 50.27", "result": 50.97, "unit": "%"}, {"measurement": "% conversion (Right peak/Left Peak)", "setting": "[1]; R2 round: 20 deg C, 20 h, lysate 1.25% v/v, CBE 80% v/v, 100 mM Potassium phosphate pH 6, negative control 52.49", "result": 53.57, "unit": "%"}, {"measurement": "FIOP (% area increase variant/pos control)", "setting": "[1]; R2 round: 20 deg C, 20 h, lysate 1.25% v/v, CBE 80% v/v, 100 mM Potassium phosphate pH 6, positive control WT", "result": 2.9}, {"measurement": "% conversion (Right peak/Left Peak) (−neg control)", "setting": "[1]; R3 round: 35 deg C, 18 h, lysate 0.4% v/v, CBE 75% v/v, 100 mM Sodium acetate pH 5.8", "result": 3.99, "unit": "%"}, {"measurement": "Right Peak %", "setting": "[1]; R3 round: 35 deg C, 18 h, lysate 0.4% v/v, CBE 75% v/v, 100 mM Sodium acetate pH 5.8, negative control 26.60", "result": 27.59, "unit": "%"}, {"measurement": "Left Peak %", "setting": "[1]; R3 round: 35 deg C, 18 h, lysate 0.4% v/v, CBE 75% v/v, 100 mM Sodium acetate pH 5.8, negative control 28.91", "result": 25.57, "unit": "%"}, {"measurement": "Middle Peak %", "setting": "[1]; R3 round: 35 deg C, 18 h, lysate 0.4% v/v, CBE 75% v/v, 100 mM Sodium acetate pH 5.8, negative control 44.49", "result": 46.84, "unit": "%"}, {"measurement": "% conversion (Right peak/Left Peak)", "setting": "[1]; R3 round: 35 deg C, 18 h, lysate 0.4% v/v, CBE 75% v/v, 100 mM Sodium acetate pH 5.8, negative control 47.91", "result": 51.90, "unit": "%"}, {"measurement": "% change in Left Peak", "setting": "[2]; [3]", "result": "−40", "unit": "%"}, {"measurement": "% change in Middle Peak", "setting": "[2]; [3]", "result": "−96", "unit": "%"}, {"measurement": "% change in Right Peak", "setting": "[2]; [3]", "result": 309, "unit": "%"}, {"measurement": "Cumulative Fold improvement in primary enzyme loading × time", "setting": "[2]; [3]", "result": 4}, {"measurement": "Fold improvement in primary enzyme loading × time", "setting": "[2]; [3]", "result": 2.0}, {"measurement": "% Right Peak", "setting": "[2]; [3]", "result": 80, "unit": "%"}, {"measurement": "% Left Peak", "setting": "[2]; [3]", "result": 18, "unit": "%"}, {"measurement": "% Middle Peak", "setting": "[2]; [3]", "result": 2, "unit": "%"}, {"measurement": "% change in Left Peak", "setting": "[2]; [4]", "result": "−39", "unit": "%"}, {"measurement": "% change in Middle Peak", "setting": "[2]; [4]", "result": 19, "unit": "%"}, {"measurement": "% change in Right Peak", "setting": "[2]; [4]", "result": 113, "unit": "%"}, {"measurement": "Cumulative Fold improvement in primary enzyme loading × time", "setting": "[2]; [4]", "result": 4}, {"measurement": "Fold improvement in primary enzyme loading × time", "setting": "[2]; [4]", "result": 2.0}, {"measurement": "% Right Peak", "setting": "[2]; [4]", "result": 29, "unit": "%"}, {"measurement": "% Left Peak", "setting": "[2]; [4]", "result": 18, "unit": "%"}, {"measurement": "% Middle Peak", "setting": "[2]; [4]", "result": 52, "unit": "%"}]}
